{
  "source": "patent US20100041596A1",
  "about": "(published 2010)",
  "key": {"TNFα, biotinylated form": {"molecular_target": "T1, TNFα, biotinylated form (human, UniProt P01375 77-233, biotinylated)", "T1 construct": "also called biotinylated human TNF-α; Bt-TNF-α", "T1 sequence (P01375 77-233 limits assumed)": "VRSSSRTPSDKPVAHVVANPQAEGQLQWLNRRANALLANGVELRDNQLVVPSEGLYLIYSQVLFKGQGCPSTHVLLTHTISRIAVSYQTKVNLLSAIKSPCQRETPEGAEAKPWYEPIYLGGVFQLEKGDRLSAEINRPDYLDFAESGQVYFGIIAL", "assay": "biotinylated TNFα staining normalized to HA staining"}, "p60ΔCD-GFP-HA": {"molecular_target": "T2, p60ΔCD-GFP-HA (UniProt P42212 1-238 = GFP, limits assumed)", "T2 construct": "GFP introduced in-frame into p60ΔCD-HA; p60 limits deduced as for p60ΔCD-HA; also called chimeric p60 receptor with the cytoplasmic domain replaced by GFP", "assay": "co-immunoprecipitation in 293T transient transfections", "procedure": "The PCR product was digested with BamHI and EcoRI and cloned into pcDNA3. The PCR fragments containing the receptor fragments were then introduced into this plasmid using the EcoRI and XhoI sites. For the GFP/CFP/YFP chimeras, the fragments were amplified by PCR and introduced in-frame into the XhoI and XbaI sites of p60ΔCD-HA. 293T cells were transfected with Fugene 6 (Boehringer Mannheim) as per manufacturer's protocol. Cells were lysed in 150 mM NaCl, 20 mM Tris.Cl [pH 7.5], 1 mM EDTA, 30 mM NaF, 2 mM β-glycerophosphate, 1 mM sodium orthovanadate, 5 mM iodoacetamide, 2 mM dithiothreitol (DTT), 1% TRITON X-100 and protease inhibitors (Boehringer Mannheim). After pre-clearing with protein G agarose beads (Boehringer Mannheim) and normal mouse IgG, proteins were immunoprecipitated from the lysates with […] anti-GFP and protein G agarose beads. Immune complexes were washed twice with lysis buffer containing 0.5 M NaCl and then three times with regular lysis buffer. Immune-complexes were resolved on Tris/Glycine gels (Novex)."}},
  "data": [
    {"binder": "p60ΔCD-HA K32A (receptor, not shown: small tags and cut ends, Mutant of p60ΔCD-HA; numbers count on mature p60) LVPHLGDREKRDSVCPQGKYIHPQNNSICCTACHKGTYLYNDCPGPGQDTDCRECESGSFTASENHLRHCLSCSKCRKEMGQVEISSCTVDRDTVCGCRKNQYRHYWSENLFQCFNCSLCLNGTVHLSCQEKQNTVCTCHAGFFLRENECVSCSNCKKSLECTKLCLPQIENVKGTEDSGTTVLLPLVIFFGLCLLSLLFIGLMYRYQRWK", "values": [
      {"measurement": "binding result", "setting": "TNFα, biotinylated form", "result": "no binding"},
      {"measurement": "binding result", "setting": "p60ΔCD-GFP-HA", "result": "no binding"}
    ]}
  ]
}
